In patent publication US10556007B2, “Antibody which binds Lrg1 and methods of use” (UCL Business PLC, priority 2015, dated 2020):
Entries after “also recorded” stand apart in the source; their conditions may differ.

What was measured:
[1] = tested on: laser-induced choroidal neovascularisation; test: Mouse model of laser-induced CNV; format: in vivo; details: intraocular injection at lasering, FFA after 7 days
Procedure: The images on the left of FIG. 17A show a typical wild-type mouse retina under normal illumination (Fundus), and under fluorescence illumination, 7 days after three laser burns were administered to the retinal pigment epithelium. Fluorescence images were captured ˜60 seconds after systemic dosing with fluorescein (Early Phase FFA) and again after ˜7 minutes (Late Phase FFA). At the time of lasering, animals received intraocular injections of either control IgG (top panels) or 15C4 (lower panels). The Early Phase FFA images show the size of the lesions, and the Late Phase images show leakage of fluorescein into the retina. Lesion sizes were quantified for 15C4 at 2.5, 5 and 10 μg doses, and also Eylea at 2 and 4 μg, and the % blocking is a measure of average lesion size relative to that observed in the controls. On the far right a similar analysis was undertaken using Eylea and Magacizumab (both at 2.1 μg) alone and in combination.
Wild type C57B6 mice were anaesthetized and received intravitreal injections of various doses of either Magacizumab, Eylea, or both in combination, immediately following laser photocoagulation of the retinal pigment epithelium. After 7 days (to allow the vascular lesions to form) the mice were again anaesthetized and examined by fluorescein angiography (FFA). Early phase FFA images (taken after 90 s) show the degree of vascularization at the lesion site. Measurement of the lesion area in the early phase images permits quantification in which percentage lesion size is normalized against the IgG4 control (FIG. 18).

[2] = tested on: HUVEC co-cultured with human fibroblasts; test: HUVEC co-culture model of angiogenesis; format: cell-based; details: 14 days co-culture, 10-200 nM
Procedure: Antibodies 4H2, 15C4 and 3A11 were tested to see if they elicited an inhibition of vessel growth in the co-culture model of angiogenesis. HUVEC were co-cultured with human fibroblasts for 14 days, and then fixed and immunostained with an antibody against PECAM. Avastin was included as a positive control, and all four mAbs were tested at 10, 25, 50, 100 and 200 nM. There were two important observations from this experiment.

[3] = tested on: Human umbilical vein endothelial cells (HUVEC); test: Matrigel tube formation assay; format: cell-based; details: 100 nM antibody, overnight
Procedure: The antibodies were tested for their ability to inhibit tube formation in a Matrigel assay. Human umbilical vein endothelial cells (HUVEC) were plated on Matrigel and cultured overnight in the presence of 100 nM mAbs. The blocking rabbit polyclonal Lrg1 antibody was also evaluated. […] Blocking with 4H2 never exceeded ˜50%.

[4] = tested on: laser-induced choroidal neovascularisation; test: Rat laser-induced choroidal neovascularisation (CNV); format: in vivo; details: Long Evans rats, intravitreal at time of lasering, analysis 7 days later
Procedure: Several antibodies were tested for their ability to block CNV in the rat. In these experiments mAbs were injected intravitreally at the time of lasering, with eyes being retrieved for analysis 7 days later (FIG. 5). Long Evans rats, aged 6-8 weeks, each received 5 retinal laser burns at the same time as intravitreal delivery of […] mAb or control IgG into both eyes. Four rats were used for each mAb, so a total of 40 lesions were analysed by staining for collagen IV and the neovascular areas quantified. […] Avastin was also tested in the rat laser model (data not shown) and observed to have no effect, consistent with Avastin having low affinity for rat VEGF.

[5] = target: T1, Lrg1 (overlapping 15-mer peptides and full length) (Homo sapiens, UniProt P02750); test: Epitope mapping on ProArray Ultra peptide microarray; format: binding
T1 sequence (P02750 36-347): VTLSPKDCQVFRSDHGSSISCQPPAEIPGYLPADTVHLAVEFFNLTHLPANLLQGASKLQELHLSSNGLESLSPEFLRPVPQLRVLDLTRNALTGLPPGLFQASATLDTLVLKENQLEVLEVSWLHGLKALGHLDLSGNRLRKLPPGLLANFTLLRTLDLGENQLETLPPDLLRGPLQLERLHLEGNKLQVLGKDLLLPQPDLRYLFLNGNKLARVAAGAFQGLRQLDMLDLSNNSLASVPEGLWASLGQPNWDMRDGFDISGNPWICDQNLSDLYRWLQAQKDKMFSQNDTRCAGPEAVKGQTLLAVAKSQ
Procedure: The determination of peptide-antibody binding was performed by incubation of serum or antibody samples with a ProArray Ultra® peptide microarray, followed by incubation with a fluorescent-labelled secondary antibody.
All peptides were synthesized separately, and then bound to the ProArray Ultra® slide surface using Prolmmune's proprietary technology. This optimised process ensured that peptides were presented on the array in such a manner as to closely mimic the properties of the corresponding protein region, circumventing the inherent physiochemical variation of the free peptides themselves and making a compatible, combined peptide and protein array platform. The test analytes (peptides or proteins) were dispensed onto the ProArray Ultra® slide in discrete spots and appropriate gal-files enabled exact alignment of the resulting array features back to the analyte deposited.
ProArray Ultra® slides were blocked using a validated blocking buffer to reduce non-specific binding of the sera. […] After several washing steps, the ProArray Ultra® arrays were dried and scanned using a high-resolution fluorescence microarray scanning system. […]
ProArray Ultra® slides containing the immobilised peptides were incubated with the antibody samples. […] The murine IgG positive controls were detected in all samples. […]

binding to full length Lrg1 on array [5]: binder at all dilutions
B1: 15C4: mouse monoclonal antibody against human Lrg1, VH SEQ ID NO: 1, VL SEQ ID NO: 2 (antibody, V domains shown)
VH: QVQLQQSGDEVVRPGSSVKISCKASGYTFSGYWMNWVKQRPGQGLQWIGQIYPGDGDTNYNGKFKGKATLTADKSSSTAYMQLSTLTSEDSAIYFCARSITTVVLDYWGQGTTLTVSS
VL: DIVLTQSPVSLAVSLGQRATISCRASQSVSTSGYSFMHWYQQKPGQPPKFLIKYASNLESGVPARFSGSGSGTDFTLNIHPVEEEDTATYYCQHSWEMPLTFGAGTKLELK
modifications: 15C4 Variable Heavy Chain; 15C4 Variable light chain
lesion formation [1]: inhibited lesion formation; also recorded: inhibit lesion formation with similar efficacy to the VEGF blocker Eylea
inhibition of vessel growth [2]: equally effective
blocking of tube formation [3]: 60%
blockade of angiogenesis (CNV) [4]: functional blockade of angiogenesis; also recorded: effective blockade; also recorded: less efficacious than 4H2 in the in vivo rodent models of angiogenesis
